The values that follow come from paper PMC6675122, “N-terminal β-strand underpins biochemical specialization of an ATG8 isoform” (PLoS Biology, 2019).

Entries after “also recorded” stand apart in the source; their conditions may differ.

The test system of this assay is ATG8. The assay is described as follows: in planta Co-IP, Vps4 with ATG8 (ATG8-2.2, ATG8-4, ATG8-4-S3). The format is binding, Solanum tuberosum.

B1: Vps4: potato vacuolar protein sorting 4; known as SKD1 in A. thaliana; ESCRT function (protein)
chain: MYSNFKEQAIEFVRQAVQEDNGGNYAKAFPLYMNALEYFKTHLKYEKNPKIKEAITQKFTEYLRRAEEIRAVLDEGGSGPGPNGGDAAVMAKPKTKPKDGEDGEDPEQSKLRAGLNSAIVREKPNVKWNDVAGLESAKQALQEAVILPVKFPQFFTGKRRPWRAFLLYGPPGTGKSYLAKAVATEAESTFFSVSSSDLVSKWMGESEKLVSNLFQMARESAPSIIFVDEIDSLCGQRGEGNESEASRRIKTELLVQMQGVGHNDDKVLVLAATNTPYALDQAIRRRFDKRIYIPLPDLKARQHMFKVHLGDTPHNLSESDFEDLARKTEGFSGSDVSVCVKDVLFEPVRKTQDAVFFTQTSNGTWIPCGPKQQGAVQTTMQELDAKGLASQIIPPPITKTDFDKVLARQRPTVSKSDLEVHDRFTKEFGEEG
As for B1, the “dependence of Vps4 binding on the ATG8 first β-strand” value (Co-IP, ATG8-2.2, ATG8-4 and ATG8-4-S3) was “the role of the N-terminal β-strand region in conferring binding to AIM-containing proteins was confirmed; also recorded: The ATG8 region surrounding the first β-strand is responsible for discriminatory binding to potato Vps4”. Further, the “interaction of Vps4 with ATG8” value (Vps4:3xMyc co-expressed with GFP:ATG8 in N. benthamiana, anti-GFP IP, immunoblot) was “direct interaction between Vps4 and ATG8”.
